# Experimental data taken from patent publication US20090068207A1, “Compositions Containing Beta 2-Glycoprotein I-Derived Peptides for the Prevention and/or Treatment of Vascular Disease” (Vascular Biogenics Ltd., priority 2005, published 2009).
# B1: Human β2 GPI: human beta2-glycoprotein I (SEQ ID NO: 10) purified from serum (protein)
# chain: MISPVLILFSSFLCHVAIAGRTCPKPDDLPFSTVVPLKTFYEPGEEITYSCKPGYVSRGGMRKFICPLTGLWPINTLKCTPRVCPFAGILENGAVRYTTFEYPNTISFSCNTGFYLNGADSAKCTEEGKWSPELPVCAPIICPPPSIPTFATLRVYKPSAGNNSLYRDTAVFECLPQHAMFGNDTITCTTHGNWTKLPECREVKCPFPSRPDNGFVNYPAKPTLYYKDKATFGCHDGYSLDGPEEIECTKLGNWSAMPSCKASCKLPVKKATVVYQGERVKIQEKFKNGMLHGDKVSFFCKNKEKKCSYTEDAQCIDGTIEVPKCFKEHSSLAFWKTDASDVKPC
# Test system: ApoE-KO mice
# Test: Aortic sinus lesion area after nasal administration in ApoE-KO mice
# Assay type: in vivo
# Procedure: Nasal Tolerance: Nasal tolerance was induced by intranasal administration of oxidized LDL, β2GPI, β2GPI-derived peptides or HSP65, in a total volume of 10 μl PBS. Intranasal administration was performed on mildly sedated mice (12-16 weeks old), each mouse receiving […] of antigen per dose, in the indicated concentrations, every other day. Atherogenesis was induced by 5 weeks of a Western diet initiated on the day following the last intranasal administration, or assessed (in Apo E KO mice) after 8 weeks on a chow diet. Controls received equal amounts of BSA and/or PBS, as indicated, in an identical regimen. Plasma was obtained for assessment of cholesterol and triglyceride levels from all mice, and the mice were sacrificed for evaluation of atherosclerosis, as described hereinbelow, after 5 weeks Western diet, or (in Apo E KO mice) after 8 weeks on a chow diet.
# Assessment of Atherosclerosis: Quantification of atherosclerotic fatty streak lesions was done by calculating the lesion size in the aortic sinus as previously described (16) and by calculating the lesion size in the aorta. Briefly, after perfusion with saline Tris EDTA, the heart and the aorta were removed from the animals and the peripheral fat cleaned carefully. […] Lesion areas per section were scored on a grid (17) by an observer counting unidentified, numbered specimens. […]
molecule,measurement,setting,value
B1,Aortic sinus lesion (μm^2),"End, nasal 10 μg/mouse, mean ± S.E",117449 ± 7524 μm^2
same,reduction of progression of atherosclerotic lesions compared to PBS controls,"nasal 10 μg, 3 doses, then 8 weeks of chow diet",19%
